Assays:
Assay in all cases: SEC; SEC-HPLC of purified individual His6-tagged BMC-H (urea-purified fractions; EutM, CmcB and EutK also from the soluble fraction), Beckman Ultraspherogel SEC2000, 20 mM Tris-HCl, 300 mM NaCl, pH 7; size from calibration standards
[1] = biological target: CmcA, His6-tagged (Klebsiella pneumoniae (strain 342))
[2] = biological target: CmcE, C-terminally His6-tagged (Klebsiella pneumoniae (strain 342))
[3] = biological target: CmcB, His6-tagged (Klebsiella pneumoniae (strain 342))
[4] = biological target: CmcC, His6-tagged (Klebsiella pneumoniae (strain 342))
[5] = biological target: CmcE, N-terminally His6-tagged (Klebsiella pneumoniae (strain 342))
[6] = biological target: EutM, His6-tagged (Klebsiella pneumoniae (strain 342))
[7] = biological target: PduU, N-terminally His6-tagged (Klebsiella pneumoniae (strain 342)) (UniProt A6TDE7)
[8] = biological target: EutS, His6-tagged (Klebsiella pneumoniae (strain 342))
[9] = biological target: the molecule itself

Molecule: CmcA, His6-tagged (natural protein)
- stoichiometry N [1]: 6

Molecule: CmcE, C-terminally His6-tagged (natural protein)
- stoichiometry N [2]: 6

Molecule: CmcB, His6-tagged (natural protein)
- stoichiometry N [3]: 6

Molecule: CmcC, His6-tagged (natural protein)
- stoichiometry N [4]: 6

Molecule: CmcE, N-terminally His6-tagged (natural protein)
- stoichiometry N [5]: 6

Molecule: EutM, His6-tagged (from UniProt A0A377ZA59 1-64) (natural protein)
- stoichiometry N [6]: 6

Molecule: PduU, N-terminally His6-tagged (from UniProt A6TDE7 1-116) (natural protein)
- stoichiometry N [7]: 6

Molecule: EutS, His6-tagged (natural protein)
- stoichiometry N [8]: 6

B1: PduA, His6-tagged (natural protein, Klebsiella pneumoniae (strain 342), UniProt A0ACD7U6D6 1-94, looked up)
chain: MQQEALGMVETKGLTAAIEAADAMVKSANVLLVGYERIGSGLVTVIVRGDVGAVKAATDAGAAAARHVGEVKAVHVIPRPHTDVEKILPKGNSQ
notes: PduA, canonical BMC-H shell protein of the PDU microcompartment; theoretical monomer MW 9.8 kDa; source: also co-expressed with a FLAG-tagged partner, in soluble lysate fraction and co-purified; not shown: His6, C-terminal, kept
- stoichiometry N [9]: 6

B2: PduJ, His6-tagged (natural protein, Klebsiella pneumoniae (strain 342), UniProt A6TDD7 1-91, looked up)
chain: MNNALGLVETKGLVGAIEAADAMVKSANVQLIGYEKIGSGLITVMVRGDVGAVKAAVDAGSAAASVVGEVKSSHVIPRPHSDVEAILPKSV
notes: PduJ, canonical BMC-H shell protein of the PDU microcompartment; theoretical monomer MW 9.2 kDa; not shown: His6, C-terminal, kept
- stoichiometry N [9]: 6

Reference: PMC12058022, “Promiscuous structural cross-compatibilities between major shell components of Klebsiella pneumoniae bacterial microcompartments” (PLOS One, 2025)
